The target in assay [1] is Recombinant human FcγRIIIa-V158 (human) (UniProt P08637). As to the kind of experiment: SPR Carterra LSA; Fc on protein AG, hFcγRIIIa-V158 analyte; 1:1 kinetic fit.
Assay [2] addresses biotinylated recombinant human FcRn (human) (UniProt P55899). Put plainly: FcRn affinity chromatography, pH gradient 5.5-9.5.
Assay [3] has the same target. Put plainly: SPR Biacore T200, pH 7.4; steady-state RU at 1000 nM antibody; SD 2.1 RU.
Assay [4] has as its target Recombinant human HPC4-tagged FcγRIIIa-V158 (human) (UniProt P08637). As to the kind of experiment: SPR Biacore T200; receptor captured by anti-HPC4, antibody analyte; steady-state RU.
For assay [5], the target named is biotinylated recombinant human FcRn (human) (UniProt P55899). As to the kind of experiment: SPR Biacore T200, pH 6.0; biotin-FcRn on CAP chip, antibody analyte; bivalent fit, apparent KD; SD 240 nM. A general note: SPR reads the build-up and loss of mass on a sensor chip optically.
Assay [6] has the same target. Put plainly: SPR Biacore T200, pH 7.4; steady-state RU at 1000 nM antibody; SD 5.4 RU.
Assay [7] has the same target. Put plainly: SPR Biacore T200, pH 6.0; biotin-FcRn on CAP chip, antibody analyte; bivalent fit, apparent KD; SD 10 nM.
Assay [8] has as its target Recombinant human FcγRIIIa-V158 (human) (UniProt P08637). Put plainly: SPR Biacore T200.
Assay [9] has as its target FcγRIIIa (V158) expressed on engineered Jurkat effector cells (UniProt P08637). As to the kind of experiment: cell-based or functional assay.
For assay [10], the target named is Recombinant human FcγRIIIa-V158 (human) (UniProt P08637). As to the kind of experiment: SPR Biacore T200; antibody on Protein A, FcγRIIIa-V158 analyte; 1:1 fit.
In assay [11] the target is biotinylated recombinant human FcRn (human) (UniProt P55899). Put plainly: SPR Biacore T200, pH 7.4; steady-state RU at 1000 nM antibody; SD 0.2 RU.
For assay [12] the target is unchanged. As to the kind of experiment: SPR Biacore T200, pH 6.0; biotin-FcRn on CAP chip, antibody analyte; bivalent fit, apparent KD; SD 700 nM.
Assay [13] has the same target. Put plainly: SPR Biacore T200, pH 7.4; steady-state RU at 1000 nM antibody; SD 5.6 RU.
For assay [14] the target is unchanged. As to the kind of experiment: SPR Biacore T200, pH 6.0; biotin-FcRn on CAP chip, antibody analyte; bivalent fit, apparent KD; SD 47 nM.
The target in assay [15] is Recombinant human FcγRIIIa-V158 (human) (UniProt P08637). Put plainly: SPR Biacore T200; antibody on protein A, FcγRIIIa-V158 analyte; 1:1 kinetic fit.
Assay [16] shares this target. As to the kind of experiment: SPR Biacore T200; antibody on Protein A, FcγRIIIa-V158 analyte; 1:1 fit. This is another data set of the same source.
Assay [17] deals with biotinylated recombinant human FcRn (human) (UniProt P55899). Put plainly: SPR Biacore T200, pH 7.4; steady-state RU at 1000 nM antibody; SD 3.3 RU.
Assay [18] shares this target. Put plainly: SPR Biacore T200, pH 6.0; biotin-FcRn on CAP chip, antibody analyte; bivalent fit, apparent KD; SD 260 nM.

biotinylated recombinant human FcRn (human), sequence (P55899 24-297 limits assumed, chain 1 of 2): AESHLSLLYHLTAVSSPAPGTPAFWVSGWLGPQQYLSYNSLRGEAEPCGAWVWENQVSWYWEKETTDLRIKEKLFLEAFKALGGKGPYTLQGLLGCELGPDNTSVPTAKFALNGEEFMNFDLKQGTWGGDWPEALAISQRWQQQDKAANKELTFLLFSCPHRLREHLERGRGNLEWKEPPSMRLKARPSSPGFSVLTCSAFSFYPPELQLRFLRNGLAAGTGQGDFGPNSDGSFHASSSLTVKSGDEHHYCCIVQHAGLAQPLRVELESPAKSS
biotinylated recombinant human FcRn (human), sequence (P61769 21-119 limits assumed, chain 2 of 2, further chain): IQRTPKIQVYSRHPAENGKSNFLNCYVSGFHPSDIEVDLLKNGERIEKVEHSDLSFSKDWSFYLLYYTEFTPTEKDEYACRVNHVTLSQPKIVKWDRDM

“Fc fragment S298A, with kifunensine (from UniProt P01857 104-330)”: the Kd in assay [1] was 21 nM.

As to “YTE antibody specific for protein 3, with kifunensine”, the pH of elution in assay [2] turned out to be 7.68 pH. Also, the RU (steady state, pH 7.4) in assay [3] was 9 RU. In addition, in assay [4], the Fold Change (Kifunensine Treated vs Untreated) in FcγRIIIa Binding Affinity was determined as 2.88 fold and the Fold Change versus WT in FcγRIIIa Binding Affinity with Kifunensine Treatment came out at 1.26 fold. The Kd in assay [5] was found to be 1210 nM.

In the case of “LS antibody specific for protein 3, with kifunensine”, the pH of elution in assay [2] amounted to 7.81 pH. For the same substance, in assay [6], the RU (steady state, pH 7.4) is 16.6 RU. Besides, in [4], the Fold Change (Kifunensine Treated vs Untreated) in FcγRIIIa Binding Affinity is 1.75 fold and the Fold Change versus WT in FcγRIIIa Binding Affinity with Kifunensine Treatment turned out to be 1.85 fold. In addition, the Kd in assay [7] turned out to be 658 nM.

Consider “Fc fragment S298C, with kifunensine (from UniProt P01857 104-330)”, for which, in assay [1], the Kd amounted to 24 nM.

With “DE (S239D/I332E) antibody specific for protein 1 containing oligomannose (human IgG1)”, the fold higher affinity than the unmodified DE antibody in assay [8] was found to be 2.3 fold. In assay [9], this substance displayed an ADCC activity (ADCC reporter gene assay), fold vs DE antibody without modification of 1.4 fold. For the same substance, in [10], the Kd was 6 nM, the dissociation rate constant (koff) was found to be 0.002 s⁻¹ and the kon amounted to 400000 M⁻¹ s⁻¹.

With “DE (S239D/I332E) antibody specific for protein 1 (human IgG1)”, in assay [10], the Kd is 14 nM and the koff amounted to 0.006 s⁻¹.

As to “WT antibody specific for protein 3, with kifunensine”, in assay [2], the pH of elution amounted to 7.01 pH. In [11], the RU (steady state, pH 7.4) stood at 0.5 RU. Further, in [4], the Fold Change (Kifunensine Treated vs Untreated) in FcγRIIIa Binding Affinity turned out to be 1.76 fold and the Fold Change versus WT in FcγRIIIa Binding Affinity with Kifunensine Treatment is 1.76 fold. In [12], the Kd came out at 3040 nM.

As to “LS antibody specific for protein 3, without kifunensine”, in [2], the pH of elution was 7.84 pH. For the same substance, the RU (steady state, pH 7.4) in assay [13] turned out to be 19.4 RU. Moreover, the Kd in assay [14] was 534 nM.

Turning to “DE (R292C/V302C) antibody specific for protein 5 (TPP-35708)”, in assay [15], the Fold KD WT is 31 fold, the Kd was 3.79 nM, the koff turned out to be 0.00832 s⁻¹ and the on-rate constant (kon) stood at 2.2e+06 M⁻¹ s⁻¹.

With “WT antibody specific for protein 1 containing oligomannose (human IgG1)”, in assay [10], the Kd worked out at 256 nM, the koff was 0.017 s⁻¹ and the kon came to 70000 M⁻¹ s⁻¹.

For “Fc fragment S298C, no kifunensine (from UniProt P01857 104-330)”, the Kd in [1] was 86 nM.

With “WT antibody specific for protein 3, without kifunensine”, in assay [2], the pH of elution is 7.07 pH. In assay [11], the RU (steady state, pH 7.4) stood at 0.8 RU. Besides, in [5], the Kd was found to be 2000 nM.

On to “afucosylated DE (S239D/I332E) antibody specific for protein 1 (human IgG1)”, for which the fold increase in receptor binding compared to DE antibody in assay [8] turned out to be 3.5 fold. Besides, in [9], the ADCC activity (ADCC reporter gene assay), fold vs DE antibody without modification worked out at 3.2 fold. For the same substance, in [16], the Kd worked out at 4 nM, the dissociation rate constant (koff) came to 0.003 s⁻¹ and the kon was 750000 M⁻¹ s⁻¹.

On to “Fc fragment S298A, no kifunensine (from UniProt P01857 104-330)”, for which the Kd in [1] came to 230 nM.

Regarding “WT antibody specific for protein 5 (TPP-23424)”, the Kd in [15] came to 118 nM.

For the substance “YTE antibody specific for protein 3, without kifunensine”, the pH of elution in assay [2] stood at 7.74 pH. Also, the RU (steady state, pH 7.4) in assay [17] came to 10.7 RU. In addition, the Kd in assay [18] worked out at 1270 nM.

As to “WT antibody specific for protein 1 (human monoclonal IgG1, mAb A)”, in assay [10], the Kd was found to be 540 nM, the koff was 0.031 s⁻¹ and the kon was determined as 60000 M⁻¹ s⁻¹. In addition, in assay [16], the Kd stood at 557 nM, the koff was 0.107 s⁻¹ and the kon turned out to be 190000 M⁻¹ s⁻¹.

With “afucosylated antibody specific for protein 5 (Creative Biolabs)”, in [15], the Fold KD WT came to 8 fold, the Kd is 14.9 nM, the koff is 0.00925 s⁻¹ and the kon is 622000 M⁻¹ s⁻¹.

On to “hypergalactosylated DE (S239D/I332E) antibody specific for protein 1 (human IgG1)”, for which the fold higher affinity than the unmodified DE antibody in assay [8] turned out to be 1.8 fold. In [10], the Kd came to 8 nM, the koff was determined as 0.004 s⁻¹ and the kon was 480000 M⁻¹ s⁻¹.

One may read the koff as a measure of how fast the partners let go of each other. By kon is commonly meant the second-order rate constant of association.

Source of the values: patent US20240166750A1.
